According to US20190359662A1:

Assays:
Experiment in all cases: cell-based or functional assay
hNav1.1 (human) = hNav1.1 (human) (UniProt P35498)
hNav1.2 (human) = hNav1.2 (human) (UniProt Q99250)
hNav1.3 (human) = hNav1.3 (human) (UniProt Q9NY46)
hNav1.4 (human) = hNav1.4 (human) (UniProt P35499)
hNav1.5 (human) = hNav1.5 (human) (UniProt Q14524)
hNav1.6 (human) = hNav1.6 (human) (UniProt Q9UQD0)
hNav1.8 (human) = hNav1.8 (human) (UniProt Q9Y5Y9)

Chain of hNav1.3 (human) (Q9NY46 whole entry): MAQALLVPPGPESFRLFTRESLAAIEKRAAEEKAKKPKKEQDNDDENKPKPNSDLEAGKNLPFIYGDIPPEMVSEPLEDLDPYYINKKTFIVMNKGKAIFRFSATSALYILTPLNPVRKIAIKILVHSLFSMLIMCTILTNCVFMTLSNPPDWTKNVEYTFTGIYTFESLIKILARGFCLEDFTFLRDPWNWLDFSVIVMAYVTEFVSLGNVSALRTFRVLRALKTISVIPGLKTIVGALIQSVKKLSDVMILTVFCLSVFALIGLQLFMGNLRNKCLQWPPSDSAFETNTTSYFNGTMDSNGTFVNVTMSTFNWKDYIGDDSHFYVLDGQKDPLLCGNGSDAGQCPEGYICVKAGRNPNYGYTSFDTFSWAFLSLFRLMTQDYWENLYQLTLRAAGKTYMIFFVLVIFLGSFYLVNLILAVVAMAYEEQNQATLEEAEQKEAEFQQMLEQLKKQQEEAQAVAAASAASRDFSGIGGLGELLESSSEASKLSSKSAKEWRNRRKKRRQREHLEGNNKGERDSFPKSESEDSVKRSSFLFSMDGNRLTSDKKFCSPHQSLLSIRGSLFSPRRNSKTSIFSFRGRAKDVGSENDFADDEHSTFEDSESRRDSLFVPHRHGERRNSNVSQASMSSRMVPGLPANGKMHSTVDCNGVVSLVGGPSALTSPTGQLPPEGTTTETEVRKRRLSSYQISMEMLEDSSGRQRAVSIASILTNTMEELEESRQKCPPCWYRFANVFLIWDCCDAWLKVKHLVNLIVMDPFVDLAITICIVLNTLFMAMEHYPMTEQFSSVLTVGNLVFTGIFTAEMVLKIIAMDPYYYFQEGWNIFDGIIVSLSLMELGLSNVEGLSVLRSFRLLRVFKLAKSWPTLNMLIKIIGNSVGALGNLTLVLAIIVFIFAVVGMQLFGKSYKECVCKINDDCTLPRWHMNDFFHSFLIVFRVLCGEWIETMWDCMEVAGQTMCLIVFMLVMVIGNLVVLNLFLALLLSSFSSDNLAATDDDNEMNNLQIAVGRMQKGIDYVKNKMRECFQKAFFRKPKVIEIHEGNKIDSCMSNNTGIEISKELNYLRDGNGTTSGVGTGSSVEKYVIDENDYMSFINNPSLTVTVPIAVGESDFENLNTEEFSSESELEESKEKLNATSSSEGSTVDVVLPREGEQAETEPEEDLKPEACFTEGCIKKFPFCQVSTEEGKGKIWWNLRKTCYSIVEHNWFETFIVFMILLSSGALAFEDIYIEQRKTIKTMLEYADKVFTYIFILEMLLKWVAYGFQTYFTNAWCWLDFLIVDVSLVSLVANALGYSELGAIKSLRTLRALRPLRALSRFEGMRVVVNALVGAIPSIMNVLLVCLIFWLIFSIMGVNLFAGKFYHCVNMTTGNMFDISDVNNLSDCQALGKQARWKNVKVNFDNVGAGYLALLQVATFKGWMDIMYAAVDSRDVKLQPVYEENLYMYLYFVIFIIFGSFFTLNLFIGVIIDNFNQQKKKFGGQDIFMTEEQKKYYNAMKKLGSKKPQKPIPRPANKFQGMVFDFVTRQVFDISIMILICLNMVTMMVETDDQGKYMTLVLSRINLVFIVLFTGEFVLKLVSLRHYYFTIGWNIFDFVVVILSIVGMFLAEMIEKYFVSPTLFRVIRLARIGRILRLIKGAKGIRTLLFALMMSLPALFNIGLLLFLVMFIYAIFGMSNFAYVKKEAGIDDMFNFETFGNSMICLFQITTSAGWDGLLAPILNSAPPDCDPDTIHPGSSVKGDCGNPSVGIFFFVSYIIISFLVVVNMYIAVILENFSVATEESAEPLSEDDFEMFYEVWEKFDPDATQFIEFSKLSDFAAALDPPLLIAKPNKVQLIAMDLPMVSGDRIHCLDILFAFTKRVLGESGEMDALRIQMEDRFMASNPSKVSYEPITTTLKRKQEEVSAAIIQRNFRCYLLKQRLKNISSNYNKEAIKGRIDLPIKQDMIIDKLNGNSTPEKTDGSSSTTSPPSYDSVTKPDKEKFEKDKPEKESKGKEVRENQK
Chain of hNav1.4 (human) (P35499 whole entry): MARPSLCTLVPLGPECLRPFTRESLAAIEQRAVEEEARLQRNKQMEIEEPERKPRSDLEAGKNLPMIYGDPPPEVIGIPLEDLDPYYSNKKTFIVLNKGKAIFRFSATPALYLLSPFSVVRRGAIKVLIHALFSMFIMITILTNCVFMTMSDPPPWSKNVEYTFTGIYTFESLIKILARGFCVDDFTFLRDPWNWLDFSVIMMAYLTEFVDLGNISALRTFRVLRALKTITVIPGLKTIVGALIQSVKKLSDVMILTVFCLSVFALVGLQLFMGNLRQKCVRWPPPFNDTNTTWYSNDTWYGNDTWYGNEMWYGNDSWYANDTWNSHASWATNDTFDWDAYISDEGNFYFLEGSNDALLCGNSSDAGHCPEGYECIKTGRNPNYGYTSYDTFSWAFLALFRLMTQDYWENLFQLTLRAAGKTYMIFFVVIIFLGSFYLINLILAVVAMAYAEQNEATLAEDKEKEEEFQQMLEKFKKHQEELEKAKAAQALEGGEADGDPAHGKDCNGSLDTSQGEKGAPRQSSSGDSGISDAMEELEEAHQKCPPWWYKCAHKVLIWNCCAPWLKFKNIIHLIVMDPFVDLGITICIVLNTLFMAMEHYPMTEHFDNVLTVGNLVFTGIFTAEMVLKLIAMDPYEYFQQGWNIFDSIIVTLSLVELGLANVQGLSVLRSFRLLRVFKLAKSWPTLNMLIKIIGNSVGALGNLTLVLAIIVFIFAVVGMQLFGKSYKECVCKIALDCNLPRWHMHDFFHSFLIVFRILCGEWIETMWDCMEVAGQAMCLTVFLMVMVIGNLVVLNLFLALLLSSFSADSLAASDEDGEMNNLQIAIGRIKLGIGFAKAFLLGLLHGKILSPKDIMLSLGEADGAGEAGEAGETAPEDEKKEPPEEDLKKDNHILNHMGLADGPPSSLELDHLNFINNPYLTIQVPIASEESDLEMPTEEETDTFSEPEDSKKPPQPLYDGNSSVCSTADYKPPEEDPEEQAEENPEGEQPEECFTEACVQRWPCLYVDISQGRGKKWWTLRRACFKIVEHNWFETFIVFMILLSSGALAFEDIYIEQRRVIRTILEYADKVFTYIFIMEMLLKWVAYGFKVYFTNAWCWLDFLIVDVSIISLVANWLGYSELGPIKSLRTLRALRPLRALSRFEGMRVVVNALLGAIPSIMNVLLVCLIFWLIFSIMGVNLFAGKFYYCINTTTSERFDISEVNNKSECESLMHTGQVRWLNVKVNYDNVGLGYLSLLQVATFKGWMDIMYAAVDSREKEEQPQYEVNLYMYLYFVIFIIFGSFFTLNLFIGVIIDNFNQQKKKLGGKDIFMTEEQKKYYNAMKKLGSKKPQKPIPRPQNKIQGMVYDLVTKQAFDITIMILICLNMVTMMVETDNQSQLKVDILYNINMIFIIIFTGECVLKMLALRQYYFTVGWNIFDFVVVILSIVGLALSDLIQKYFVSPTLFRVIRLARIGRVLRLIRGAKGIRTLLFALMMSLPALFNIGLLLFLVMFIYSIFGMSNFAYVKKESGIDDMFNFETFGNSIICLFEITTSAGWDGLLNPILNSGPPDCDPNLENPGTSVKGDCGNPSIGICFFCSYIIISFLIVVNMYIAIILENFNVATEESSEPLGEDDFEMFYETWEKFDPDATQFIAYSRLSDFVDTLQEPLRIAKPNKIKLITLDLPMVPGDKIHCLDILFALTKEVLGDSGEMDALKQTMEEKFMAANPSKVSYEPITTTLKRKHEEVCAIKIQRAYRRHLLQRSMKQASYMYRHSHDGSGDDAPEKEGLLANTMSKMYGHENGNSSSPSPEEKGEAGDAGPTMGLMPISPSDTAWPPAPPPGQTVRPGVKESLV

Substance	IC50, membrane potential assay (hNav1.1 (human))	IC50, membrane potential assay (hNav1.2 (human))	IC50, membrane potential assay (hNav1.3 (human))	IC50, membrane potential assay (hNav1.4 (human))	IC50, membrane potential assay (hNav1.5 (human))	IC50, membrane potential assay (hNav1.6 (human))	IC50, membrane potential assay (hNav1.8 (human))
Ac-Pnc1a (peptide)	23 µM	5 µM	8 µM	14 µM	> 30 µM	16 µM	> 30 µM
Pnc1a-CONH2 (peptide)	8 µM	3 µM	7 µM	16 µM	> 30 µM	20 µM	> 30 µM
